The results in this text go back to patent US20040157327A1.

The assay concerns the target Pablo, full length (pro-apoptotic Bcl-xL binding protein) (human) (UniProt Q92558). Description: cell-based or functional assay.
UniProt Q92558, sequence (Q92558 whole entry): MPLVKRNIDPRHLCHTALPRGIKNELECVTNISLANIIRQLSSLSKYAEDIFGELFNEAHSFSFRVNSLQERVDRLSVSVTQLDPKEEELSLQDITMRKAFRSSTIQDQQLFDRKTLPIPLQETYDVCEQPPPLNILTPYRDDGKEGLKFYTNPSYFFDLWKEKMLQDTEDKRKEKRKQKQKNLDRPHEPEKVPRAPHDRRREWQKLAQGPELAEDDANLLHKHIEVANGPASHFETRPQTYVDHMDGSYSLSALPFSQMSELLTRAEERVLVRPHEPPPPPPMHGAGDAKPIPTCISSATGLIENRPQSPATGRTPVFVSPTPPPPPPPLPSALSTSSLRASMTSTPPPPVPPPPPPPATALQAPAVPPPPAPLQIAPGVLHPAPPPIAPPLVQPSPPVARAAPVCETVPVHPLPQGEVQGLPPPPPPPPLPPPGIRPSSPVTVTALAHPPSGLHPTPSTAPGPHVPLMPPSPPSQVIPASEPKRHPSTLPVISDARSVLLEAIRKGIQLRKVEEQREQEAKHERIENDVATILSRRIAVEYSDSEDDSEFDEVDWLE

In turn, Bcl-xL-eGFP (from UniProt Q07817 1-233) showed an apoptotic nuclei at 48 hours post-transfection/induction (PC12-Pablo cells, Hoechst stain) of 3.5% and a percentage of PC12 cells that were eGFP+, 48 hours post-transfection/induction of 14%.
